Reference: article doi:10.1101/2022.07.16.500195 (bioRxiv, 2022)
Like-named read-outs stand apart in the source and are kept apart here.

B1: PulLCTD (C-terminal domain of PulL, residues 312-398) (domain or fragment, Klebsiella oxytoca)
chain: SNAGARPALISRLGALQQIIDDTPGIRLRTLSFDAARNALQLEISAVSSQALEQFSQRARARFRVQTGEMKPRADGIEGRLTLEGNDA
B2: PulMCTD (C-terminal domain of PulM, residues 79-161) (domain or fragment, Klebsiella oxytoca)
chain: SPEEPSTVIMREAARHGLTIVRLQPQGSRLSLTVQPADFQALMAWLDALGQAGMTTATLAVTAVAQQPGWVTVNTLVLERSDEK

Assays:
AUC + other: NMR = molecular target: the molecule itself; assay: AUC + other: NMR
[1] = molecular target: B2; assay: NMR titration
[2] = molecular target: the molecule itself
[3] = molecular target: B1; assay: native MS

## B1
AUC + other: NMR
  stoichiometry N: 2
[1]
  stoichiometry N: 1 PulLCTD per PulMCTD

## B2
[2]
  stoichiometry N: 2
[3]
  binding result: binds
